Measurements taken from patent US20250084188A1 (CHUNGBUK NATIONAL UNIVERSITY INDUSTRY ACADEMIC COOPERATION …, published 2025).

B1: F4 (IgG) (antibody, V domains shown)
VH: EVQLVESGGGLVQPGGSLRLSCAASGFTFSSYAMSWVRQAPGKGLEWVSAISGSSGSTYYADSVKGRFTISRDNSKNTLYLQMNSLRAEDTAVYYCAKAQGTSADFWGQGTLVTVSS
VL: DIQMTQSPSSLSASVGDRVTITCRASQSISRWLNWYQQKPGKAPKLLIYAASRLQSGVPSRFSGSGSGTDFTLTISSLQPEDFATYYCQQSYSTPWTFGQGTKVEIK
notes: Converted into the IgG form of human antibodies, expressed in ExpiCHO-S
B2: A5 (IgG) (antibody, V domains shown)
VH: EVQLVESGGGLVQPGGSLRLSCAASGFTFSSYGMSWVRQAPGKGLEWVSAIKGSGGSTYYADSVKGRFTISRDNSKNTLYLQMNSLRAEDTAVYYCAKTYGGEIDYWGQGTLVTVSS
VL: DIQMTQSPSSLSASVGDRVTITCRASQSISRWLNWYQQKPGKAPKLLIYATSTLQSGVPSRFSGSGSGTDFTLTISSLQPEDFATYYCQQSYSFPWTFGQGTKVEIK
notes: as for B1
B3: H1 (IgG) (antibody, V domains shown)
VH: EVQLVESGGGLVQPGGSLRLSCAASGFTFSSYAMSWVRQAPGKGLEWVSAIRSSGGTTYYADSVKGRFTISRDNSKNTLYLQMNSLRAEDTAVYYCAKSQSTVADYWGQGTLVTVSS
VL: DIQMTQSPSSLSASVGDRVTITCRASQSISNWLNWYQQKPGKAPKLLIYATSRLQSGVPSRFSGSGSGTDFTLTISSLQPEDFATYYCQQSYSFPLTFGQGTKVEIK
notes: as for B1
B4: H7 (IgG) (antibody, V domains shown)
VH: EVQLVESGGGLVQPGGSLRLSCAASGFTFSSYGMHWVRQAPGKGLEWVSGISSSGGSKYYADSVKGRFTISRDNSKNTLYLQMNSLRAEDTAVYYCAKHGHQQMDFWGQGTLVTVSS
VL: DIQMTQSPSSLSASVGDRVTITCRASQSISSWLNWYQQKPGKAPKLLIYAASRLQSGVPSRFSGSGSGTDFTLTISSLQPEDFATYYCQQTYSFPWTFGQGTKVEIK
notes: as for B1
B5: A7 (IgG) (antibody, V domains shown)
VH: EVQLVESGGGLVQPGGSLRLSCAASGFTFSDYAMSWVRQAPGKGLEWVSGISSSGGTIYYADSVKGRFTISRDNSKNTLYLQMNSLRAEDTAVYYCAKAIGSWADIWGQGTLVTVSS
VL: DIQMTQSPSSLSASVGDRVTITCRASQDISNYLNWYQQKPGKAPKLLIYAASSLQSGVPSRFSGSGSGTDFTLTISSLQPEDFATYYCQQSYSFPYTFGQGTKVEIK
notes: as for B1
B6: D2 (IgG) (antibody, V domains shown)
VH: EVQLVESGGGLVQPGGSLRLSCAASGFTFSSYAMHWVRQAPGKGLEWVSAISSSSGTIYYADSVKGRFTISRDNSKNTLYLQMNSLRAEDTAVYYCAKDFGAVFDYWGQGTLVTVSS
VL: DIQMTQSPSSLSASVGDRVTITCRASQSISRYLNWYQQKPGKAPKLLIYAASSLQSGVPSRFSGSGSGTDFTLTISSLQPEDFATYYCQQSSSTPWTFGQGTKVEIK
notes: as for B1
B7: F2 (IgG) (antibody, V domains shown)
VH: EVQLVESGGGLAQPGGSLRLSCAASGFTFSSYAMHWVRQAPGKGLEWVSSIKSSGGSKNYADSVKGRFTISRDNSKNTLYLQMNSLRAEDTAVYYCAKGYGASFDFWGQGTLVTVSS
VL: DIQMTQSPSSLSASVGDRVTITCRASQDISSWLNWYQQKPGKAPKLLIYAASRLQSGVPSRFSGSGSGTDFTLTISSLQPEDFATYYCQQAYSFPWTFGQGTKVEIK
notes: as for B1
B8: E7 (IgG) (antibody, V domains shown)
VH: EVQLVESGGGLVQPGGSLRLSCAASGFTFSSYAMHWVRQAPGKGLEWVSAISSSGGSIYYADSVKGRFTISRDNSKNTLYLQMNSLRAEDTAVYYCAKQGLSFDIWGQGTLVTVSS
VL: DIQMTQSPSSLSASVGDRVTITCRASQSISNWLNWYQQKPGKAPKLLIYATSRLQSGVPSRFSGSGSGTDFTLTISSLQPEDFATYYCQQSYSFPYTFGQGTKVEIK
notes: as for B1
B9: 1E12 (IgG) (antibody, V domains shown)
VH: EVQLVESGGGLVQPGGSLRLSCAASGFTFSSYAMHWVRQAPGKGLEWVSAISSSGGTKYYADSVKGRFTISRDNSKNTLYLQMNSLRAEDTAVYYCAKGLQGGAGAFDIWGQGTLVTVSS
VL: DIQMTQSPSSLSASVGDRVTITCRASQSISNYLNWYQQKPGKAPKLLIYATSTLHSGVPSRFSGSGSGTDFTLTISSLQPEDFATYYCQQSYSFPWTFGQGTKVEIK
notes: as for B1
B10: C5 (IgG) (antibody, V domains shown)
VH: EVQLVESGGGLVQPGGSLRLSCAASGFTFSSYAMSWVRQAPGKGLEWVSSISSSSGTTHYADSVKGRFTISRDNSKNTLYLQMNSLRAEDTAVYYCAKGGAFDYWGQGTLVTVSS
VL: DIQMTQSPSSLSASVGDRVTITCRASQDISRWLNWYQQKPGKAPKLLIYAASTLQSGVPSRFSGSGSGTDFTLTISSLQPEDFATYYCQQSYSFPLTFGQGTKVEIK
notes: as for B1
B11: A5 Fab clone (phage-displayed) (Fab, V domains shown)
VH: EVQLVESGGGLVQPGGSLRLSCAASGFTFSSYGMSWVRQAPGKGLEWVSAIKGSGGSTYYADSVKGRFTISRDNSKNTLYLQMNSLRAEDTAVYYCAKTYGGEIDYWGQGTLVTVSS
VL: DIQMTQSPSSLSASVGDRVTITCRASQSISRWLNWYQQKPGKAPKLLIYATSTLQSGVPSRFSGSGSGTDFTLTISSLQPEDFATYYCQQSYSFPWTFGQGTKVEIK
B12: H1 Fab clone (phage-displayed) (Fab, V domains shown)
VH: EVQLVESGGGLVQPGGSLRLSCAASGFTFSSYAMSWVRQAPGKGLEWVSAIRSSGGTTYYADSVKGRFTISRDNSKNTLYLQMNSLRAEDTAVYYCAKSQSTVADYWGQGTLVTVSS
VL: DIQMTQSPSSLSASVGDRVTITCRASQSISNWLNWYQQKPGKAPKLLIYATSRLQSGVPSRFSGSGSGTDFTLTISSLQPEDFATYYCQQSYSFPLTFGQGTKVEIK
B13: A7 Fab clone (phage-displayed) (Fab, V domains shown)
VH: EVQLVESGGGLVQPGGSLRLSCAASGFTFSDYAMSWVRQAPGKGLEWVSGISSSGGTIYYADSVKGRFTISRDNSKNTLYLQMNSLRAEDTAVYYCAKAIGSWADIWGQGTLVTVSS
VL: DIQMTQSPSSLSASVGDRVTITCRASQDISNYLNWYQQKPGKAPKLLIYAASSLQSGVPSRFSGSGSGTDFTLTISSLQPEDFATYYCQQSYSFPYTFGQGTKVEIK
B14: D2 Fab clone (phage-displayed) (Fab, V domains shown)
VH: EVQLVESGGGLVQPGGSLRLSCAASGFTFSSYAMHWVRQAPGKGLEWVSAISSSSGTIYYADSVKGRFTISRDNSKNTLYLQMNSLRAEDTAVYYCAKDFGAVFDYWGQGTLVTVSS
VL: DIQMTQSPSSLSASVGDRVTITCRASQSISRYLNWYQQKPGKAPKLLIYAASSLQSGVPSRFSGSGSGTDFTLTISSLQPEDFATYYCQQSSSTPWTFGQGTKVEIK
B15: F2 Fab clone (phage-displayed) (Fab, V domains shown)
VH: EVQLVESGGGLAQPGGSLRLSCAASGFTFSSYAMHWVRQAPGKGLEWVSSIKSSGGSKNYADSVKGRFTISRDNSKNTLYLQMNSLRAEDTAVYYCAKGYGASFDFWGQGTLVTVSS
VL: DIQMTQSPSSLSASVGDRVTITCRASQDISSWLNWYQQKPGKAPKLLIYAASRLQSGVPSRFSGSGSGTDFTLTISSLQPEDFATYYCQQAYSFPWTFGQGTKVEIK
B16: E7 Fab clone (phage-displayed) (Fab, V domains shown)
VH: EVQLVESGGGLVQPGGSLRLSCAASGFTFSSYAMHWVRQAPGKGLEWVSAISSSGGSIYYADSVKGRFTISRDNSKNTLYLQMNSLRAEDTAVYYCAKQGLSFDIWGQGTLVTVSS
VL: DIQMTQSPSSLSASVGDRVTITCRASQSISNWLNWYQQKPGKAPKLLIYATSRLQSGVPSRFSGSGSGTDFTLTISSLQPEDFATYYCQQSYSFPYTFGQGTKVEIK
B17: F4 Fab clone (phage-displayed) (Fab, V domains shown)
VH: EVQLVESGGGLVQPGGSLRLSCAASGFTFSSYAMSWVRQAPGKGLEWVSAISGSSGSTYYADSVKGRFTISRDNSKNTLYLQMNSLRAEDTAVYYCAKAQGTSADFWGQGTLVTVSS
VL: DIQMTQSPSSLSASVGDRVTITCRASQSISRWLNWYQQKPGKAPKLLIYAASRLQSGVPSRFSGSGSGTDFTLTISSLQPEDFATYYCQQSYSTPWTFGQGTKVEIK
B18: 1E12 Fab clone (phage-displayed) (Fab, V domains shown)
VH: EVQLVESGGGLVQPGGSLRLSCAASGFTFSSYAMHWVRQAPGKGLEWVSAISSSGGTKYYADSVKGRFTISRDNSKNTLYLQMNSLRAEDTAVYYCAKGLQGGAGAFDIWGQGTLVTVSS
VL: DIQMTQSPSSLSASVGDRVTITCRASQSISNYLNWYQQKPGKAPKLLIYATSTLHSGVPSRFSGSGSGTDFTLTISSLQPEDFATYYCQQSYSFPWTFGQGTKVEIK
B19: C5 Fab clone (phage-displayed) (Fab, V domains shown)
VH: EVQLVESGGGLVQPGGSLRLSCAASGFTFSSYAMSWVRQAPGKGLEWVSSISSSSGTTHYADSVKGRFTISRDNSKNTLYLQMNSLRAEDTAVYYCAKGGAFDYWGQGTLVTVSS
VL: DIQMTQSPSSLSASVGDRVTITCRASQDISRWLNWYQQKPGKAPKLLIYAASTLQSGVPSRFSGSGSGTDFTLTISSLQPEDFATYYCQQSYSFPLTFGQGTKVEIK
B20: H7 Fab clone (phage-displayed) (Fab, V domains shown)
VH: EVQLVESGGGLVQPGGSLRLSCAASGFTFSSYGMHWVRQAPGKGLEWVSGISSSGGSKYYADSVKGRFTISRDNSKNTLYLQMNSLRAEDTAVYYCAKHGHQQMDFWGQGTLVTVSS
VL: DIQMTQSPSSLSASVGDRVTITCRASQSISSWLNWYQQKPGKAPKLLIYAASRLQSGVPSRFSGSGSGTDFTLTISSLQPEDFATYYCQQTYSFPWTFGQGTKVEIK

Each binder was assayed against T1, human chitinase-3-like protein 1 (hCHI3L1) (human, UniProt P36222 22-383) (assay: ELISA, purified IgG on CHI3L1 antigen protein).
T1 construct: Antigen used for phage display panning and ELISA; also called YKL-40; CHI3L1 antigen protein
T1 sequence (P36222 22-383 limits assumed): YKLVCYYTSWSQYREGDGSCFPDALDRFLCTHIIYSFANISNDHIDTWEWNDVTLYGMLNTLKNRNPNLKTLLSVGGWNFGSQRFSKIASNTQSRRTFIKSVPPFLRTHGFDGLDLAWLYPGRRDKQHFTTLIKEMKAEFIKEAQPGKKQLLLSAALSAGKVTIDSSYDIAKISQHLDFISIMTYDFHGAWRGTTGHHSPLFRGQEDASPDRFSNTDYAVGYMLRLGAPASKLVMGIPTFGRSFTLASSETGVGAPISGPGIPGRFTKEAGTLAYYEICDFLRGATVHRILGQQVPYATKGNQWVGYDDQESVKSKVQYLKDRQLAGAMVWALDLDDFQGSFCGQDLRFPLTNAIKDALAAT

Does B1 bind?
Result: binds

Does B2 bind?
Result: binds

Does B3 bind?
Result: binds

Does B4 bind?
Result: binds

Does B5 bind?
Result: binds

Does B6 bind?
Result: binds

Does B7 bind?
Result: binds

Does B8 bind?
Result: binds

Does B9 bind?
Result: binds

Does B10 bind?
Result: binds

These binders were tested against T1, human chitinase-3-like protein 1 … (assay: monoclonal phage ELISA, phage-displayed Fab on CHI3L1).

Does B11 bind?
Result: binds

Does B12 bind?
Result: binds

Does B13 bind?
Result: binds

Does B14 bind?
Result: binds

Does B15 bind?
Result: binds

Does B16 bind?
Result: binds

Does B17 bind?
Result: binds

Does B18 bind?
Result: binds

Does B19 bind?
Result: binds

Does B20 bind?
Result: binds
